Where two headings read alike, the source gives them in different places.
Key:
Experiment in all cases: FRET or BRET
FRET or BRET [1] = target: the molecule itself
FRET or BRET [2] = target: the molecule itself; remark: listed apart in the source
FRET or BRET [3] = target: the molecule itself; remark: listed apart in the source

B1: Alexa-labelled apoC-II S61C (Alexa-488 apoC-II; Alexa-594 apoC-II) (natural protein, human, UniProt P02655 23-101, looked up)
chain: TQQPQQDEMPSPTFLTQVKESLSSYWESAKTAAQNLYEKTYLPAVDEKLRDLYSKSTAAMCTYTGIFTDQVLSVLKGEE
modifications: conjugated with Alexa dyes (Alexa 488 C5 maleimide or Alexa 594 C5 maleimide)
koff (FRET or BRET [1]): 0.00639 s⁻¹
koff (FRET or BRET [2]): 0.0125 s⁻¹
koff (FRET or BRET [3]): 0.161 s⁻¹

Source: paper PMC2887044 (Journal of molecular biology, 2010)
